# Test results from article PMC5413573.
# Molecular target: RseP of E. faecalis LMG3358 (membrane-bound Zn-dependent site-2 protease) (E. faecalis) (UniProt Q9RPP2)
# UniProt Q9RPP2, sequence (Q9RPP2 whole entry): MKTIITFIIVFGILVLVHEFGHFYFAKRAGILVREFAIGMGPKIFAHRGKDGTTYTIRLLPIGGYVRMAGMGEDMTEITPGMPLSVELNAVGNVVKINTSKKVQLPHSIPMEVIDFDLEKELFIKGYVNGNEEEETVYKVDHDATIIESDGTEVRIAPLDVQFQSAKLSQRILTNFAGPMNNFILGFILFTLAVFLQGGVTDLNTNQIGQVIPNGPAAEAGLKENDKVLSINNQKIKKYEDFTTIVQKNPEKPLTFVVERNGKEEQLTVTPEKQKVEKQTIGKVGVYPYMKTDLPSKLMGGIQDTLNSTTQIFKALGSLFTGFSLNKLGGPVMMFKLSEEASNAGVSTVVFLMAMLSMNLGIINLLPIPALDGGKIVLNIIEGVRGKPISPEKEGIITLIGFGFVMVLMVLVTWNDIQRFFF
Substance,MIC (nM) of the bacteriocin against S. pneumoniae ds220 induced to express E. faecalis rseP (microtiter plate growth inhibition; non-induced cells and cells without rseP >4500 nM) [nM],MIC (nM) of the bacteriocin against S. pneumoniae ds220 induced to express E. faecalis rseP (microtiter plate growth inhibition; non-induced cells and cells without rseP >5500 nM) [nM]
Enterocin EJ97 (peptide),18,–
Enterocin K1 (peptide),–,700
